We go through one substance from patent US5994104.

The target in test [1] is IL-12 receptor.
Test [2] addresses IL-12 receptor. The source holds these as a separate data set.

In the case of “recombinant IL-12 (from UniProt P29459) (ligand)”, the proliferation of PHA blasts (MTT assay, 48 hours); lowest dose with an effect with IL-12 receptor [1] is 10 pg/mL. Also, the INF-γ production by PHA blasts (ELISA, 36 hours) with IL-12 receptor [2] was found to be 186 ng/mL.
